Test results reported in publication doi:10.1101/2025.03.12.642038, “Structural, biophysical and biological analysis and characterisation of IRF4 DNA-binding domain mutations associated with multiple myeloma”.

Experiments:
Assay in all cases: SPR two-state kinetic; FP: PBS + 0.05% Tween20, 5 nM DNA, 1 h, room temperature; SPR: Biacore S200, SA chip, protein 0.1-4500 nM, running buffer not given in material; errors are SD
IRF4 DBD D117H = biological target: T1, IRF4 DBD D117H (Homo sapiens, UniProt Q15306 20-132, D117H); details: protein: recombinant; tags: N-terminal His8-linker-His8-TEV, cleaved; label: 3' biotin; hairpin, TTTT loop
T1 sequence: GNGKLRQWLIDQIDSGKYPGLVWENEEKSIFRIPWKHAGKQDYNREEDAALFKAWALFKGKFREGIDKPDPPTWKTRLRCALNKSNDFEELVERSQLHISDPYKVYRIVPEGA

IRF4 DBD C99A = biological target: T2, IRF4 DBD C99A (Homo sapiens, UniProt Q15306 20-132, C99A); details: protein: recombinant; tags: N-terminal His8-linker-His8-TEV, cleaved; label: 3' biotin; hairpin, TTTT loop
T2 sequence: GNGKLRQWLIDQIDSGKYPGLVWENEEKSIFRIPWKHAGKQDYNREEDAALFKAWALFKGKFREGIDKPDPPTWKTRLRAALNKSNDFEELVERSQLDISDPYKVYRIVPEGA

IRF4 DBD wild-type = biological target: T3, IRF4 DBD wild-type (Homo sapiens, UniProt Q15306 20-132); details: protein: recombinant; tags: N-terminal His8-linker-His8-TEV, cleaved; label: 3' biotin; hairpin, TTTT loop
T3 sequence: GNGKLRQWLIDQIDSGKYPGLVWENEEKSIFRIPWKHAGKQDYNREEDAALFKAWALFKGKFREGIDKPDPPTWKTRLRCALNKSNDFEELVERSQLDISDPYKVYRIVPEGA

IRF4 DBD S114N = biological target: T4, IRF4 DBD S114N (Homo sapiens, UniProt Q15306 20-132, S114N); details: protein: recombinant; tags: N-terminal His8-linker-His8-TEV, cleaved; label: 3' biotin; hairpin, TTTT loop
T4 sequence: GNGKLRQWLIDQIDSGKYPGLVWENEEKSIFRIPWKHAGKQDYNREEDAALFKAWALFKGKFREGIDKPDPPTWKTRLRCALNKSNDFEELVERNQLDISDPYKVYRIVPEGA

IRF4 DBD T95A = biological target: T5, IRF4 DBD T95A (Homo sapiens, UniProt Q15306 20-132, T95A); details: protein: recombinant; tags: N-terminal His8-linker-His8-TEV, cleaved; label: 3' biotin; hairpin, TTTT loop
T5 sequence: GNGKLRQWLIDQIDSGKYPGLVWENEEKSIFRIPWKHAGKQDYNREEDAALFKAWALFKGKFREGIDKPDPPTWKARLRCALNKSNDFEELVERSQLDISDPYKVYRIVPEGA

IRF4 DBD T95R = biological target: T6, IRF4 DBD T95R (Homo sapiens, UniProt Q15306 20-132, T95R); details: protein: recombinant; tags: N-terminal His8-linker-His8-TEV, cleaved; label: 3' biotin; hairpin, TTTT loop
T6 sequence: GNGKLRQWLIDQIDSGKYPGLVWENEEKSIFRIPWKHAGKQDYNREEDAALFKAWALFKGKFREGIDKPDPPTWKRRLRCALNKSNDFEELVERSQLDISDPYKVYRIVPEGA

IRF4 DBD K59N = biological target: T7, IRF4 DBD K59N (Homo sapiens, UniProt Q15306 20-132, K59N); details: protein: recombinant; tags: N-terminal His8-linker-His8-TEV, cleaved; label: 3' biotin; hairpin, TTTT loop
T7 sequence: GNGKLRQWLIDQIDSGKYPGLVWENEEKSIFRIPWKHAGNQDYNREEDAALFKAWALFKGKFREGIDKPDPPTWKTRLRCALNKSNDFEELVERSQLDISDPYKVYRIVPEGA

IRF4 DBD C99S = biological target: T8, IRF4 DBD C99S (Homo sapiens, UniProt Q15306 20-132, C99S); details: protein: recombinant; label: 3' biotin; hairpin, TTTT loop
T8 sequence: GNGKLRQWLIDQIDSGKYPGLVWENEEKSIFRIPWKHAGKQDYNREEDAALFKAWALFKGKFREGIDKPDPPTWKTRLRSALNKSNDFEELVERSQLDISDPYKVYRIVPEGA

IRF4 DBD T95K = biological target: T9, IRF4 DBD T95K (Homo sapiens, UniProt Q15306 20-132, T95K); details: protein: recombinant; tags: N-terminal His8-linker-His8-TEV, cleaved; label: 3' biotin; hairpin, TTTT loop
T9 sequence: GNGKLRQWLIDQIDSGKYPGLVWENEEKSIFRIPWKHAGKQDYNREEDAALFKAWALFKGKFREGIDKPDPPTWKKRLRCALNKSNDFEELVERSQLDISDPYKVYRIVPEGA

IRF4 DBD S114R = biological target: T10, IRF4 DBD S114R (Homo sapiens, UniProt Q15306 20-132, S114R); details: protein: recombinant; tags: N-terminal His8-linker-His8-TEV, cleaved; label: 3' biotin; hairpin, TTTT loop
T10 sequence: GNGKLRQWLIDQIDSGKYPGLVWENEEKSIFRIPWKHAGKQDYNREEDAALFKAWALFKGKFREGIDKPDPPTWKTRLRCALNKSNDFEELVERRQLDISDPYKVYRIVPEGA

B1: IRE hairpin (biotin) (structured_DNA)
DNA: CTTGGTTTCACTTCCTGCGTTTTCGCAGGAAGTGAAACCAAG
Kd (IRF4 DBD D117H): 204 ± 131 nM
Kd (IRF4 DBD C99A): 61 ± 29 nM
Kd (IRF4 DBD wild-type): 187 ± 143 nM
Kd (IRF4 DBD S114N): 145 ± 151 nM
Kd (IRF4 DBD T95A): 305 ± 174 nM
Kd (IRF4 DBD T95R): 481 ± 149 nM
Kd (IRF4 DBD K59N): 107 ± 133 nM
Kd (IRF4 DBD C99S): 139 ± 43 nM
Kd (IRF4 DBD T95K): 913 ± 147 nM
Kd (IRF4 DBD S114R): 49 ± 26 nM
